Our source for the Kd, koff and kon values is EP4752156A1 (Shanghai Yunxuan Biotechnologies, Inc., dated 2026).

Changes are numbered by the printed parent chain.

Broadly, the Kd is the free concentration of one partner at which half of the binding sites on the other are occupied at equilibrium, for simple one-to-one binding. Read a high Kd as lower affinity. The koff is the rate constant with which the complex falls apart. Lower therefore signals a long-lived complex. The kon is the rate constant with which the complex forms. Higher therefore signals fast association.

For assay [1], the target named is T1, GST-ZZS01 fusion protein (UniProt P08515 1-218 = GST). The experiment in a line: Biacore SPR, 25 C; GST-antigen captured on anti-GST CM5 chip, antibody injected.
The target in assay [2] is T1, GST-ZZS01 fusion protein. Put plainly: Biacore SPR as in Example 3.3. (In general: In SPR one partner is held on a chip, and binding of the other changes the refractive index at the surface.)
Assay [3] has as its target T2, GST-ZZS05 fusion protein (UniProt P08515 1-218 = GST). The experiment in a line: Biacore SPR, 25 C; GST-antigen captured on anti-GST CM5 chip, antibody injected.
The target in assay [4] is T2, GST-ZZS05 fusion protein. Put plainly: Biacore SPR as in Example 3.3.

T2 sequence (P08515 1-218, tags or fused parts left off): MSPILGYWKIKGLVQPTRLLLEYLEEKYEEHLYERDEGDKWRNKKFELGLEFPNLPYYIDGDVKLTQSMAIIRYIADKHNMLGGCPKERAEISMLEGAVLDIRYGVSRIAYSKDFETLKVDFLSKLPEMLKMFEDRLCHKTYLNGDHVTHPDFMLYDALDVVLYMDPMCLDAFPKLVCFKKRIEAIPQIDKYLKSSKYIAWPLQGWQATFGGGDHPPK
T1 sequence (P08515 1-218, tags or fused parts left off): as above

B1: murine monoclonal antibody 1D6 (antibody, V domains shown)
VH: QIQLVQSGPELKKPGETVKISCKASGYTFTNYAVNWVIQAPGKGLKWMGWINAYTGEPTYADDFKGRFAFSLETSASTAYLQINNLKNEDMGIYFCARGGYDTYALDYWGQGTSVTVSS
VL: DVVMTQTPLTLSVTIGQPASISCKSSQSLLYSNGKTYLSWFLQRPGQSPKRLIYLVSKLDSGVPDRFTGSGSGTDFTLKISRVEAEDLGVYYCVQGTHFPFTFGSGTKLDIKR
notes: also called 106 (anti-zzs01); ID6
In assay [1], B1 gave a Kd of 4.82 nM, a koff of 1.19e-05 s⁻¹ and a kon of 2480 M⁻¹ s⁻¹.

B2: h12 (antibody, V domains shown)
VH: QVQLVESGGGLVKPGGSLRLSCAASGFSFSDSYMSWLRQAPGKGLEWVSYISSSSSYTKYTDSVKGRFTISRDNAKNSLYLQMSSLRAEDTAVYYCAREGSPGGQGTLVTVSS
VL: DVVMTQSPLSLPVTLGQPASFSCRSSQSLVFTDGNTFLSWFLQRPGQSPRRLIYRVSNRDPGVPDRFSGSGSGTDFTLKISRVEAEDVGVYYCMQGTQWPFTFGPGTKVDIKR
Consider B2, for which, in assay [2], the Kd turned out to be 6.03 nM.

B3: h4 (antibody, V domains shown)
VH: QVQLVESGGGLVKPGGSLRLSCAASGFTFSDHYMSWIRQTPGKGLEWVSYISSSGTYTNYADSVKGRFIISRDNAKNSLFLQMNSLRAEDTAVYYCAREGSPGGQGTLVTVSS
VL: DVVMTQSPLSLPVTLGQPASISCRSSQSLVFSDGNTYLNWFQQRPGQSPRRLIYKVSDRDPGVPERFSGSGSGTDFTLKISRVEAEDIGVYYCMQGSHWPFTFGPGTKVDIKR
Molecule B3 yielded a Kd in assay [2] of 2.86 nM. Against the preceding molecule, the Kd is about 2.1-fold lower.

B4: h22 (antibody, V domains shown)
VH: B3 VH with D31A, T40A, S53P, G55S, T56S, N59V, I69T
VL: B3 VL with S28N, F31D, N39S, P61S, E65D, S81N, V90I
On to B4, for which, in assay [2], the equilibrium dissociation constant (Kd) turned out to be 0.104 nM.

B5: 18 (antibody, V domains shown)
VH: B2 VH with S28T, D31A, L37I, S56T, K59N, T61A, S84D, V93M, Y95F
VL: B2 VL with P18S, F21I, F31Y, T32S, N35D, L42Q, R55M, V90I, Q98N, K108R
In the case of B5, the affinity in assay [2], expressed as Kd, was 3.46 nM.

B6: h5 (antibody, V domains shown)
VH: B2 VH with S28T, S32H, L37I, S49A, S56T, T61G, S84N
VL: B3 VL with N39S, Y54F, P61S, E65D, V83M, I88V, S97T, H98Q
In assay [2], B6 registered a Kd of 10.1 nM.

B7: h19 (antibody, V domains shown)
VH: B2 VH with L37I, K59N, T61A, S84N, A88V
VL: B2 VL with M4L, F21I, F31D, T32S, F37Y, L42Q, P61S, Q98H
Consider B7, for which, in assay [2], the Kd turned out to be 3.53 nM.

B8: h21 (antibody, V domains shown)
VH: B3 VH with D31A, T40A, S53P, G55S, T56S, N59V, I69T
VL: B3 VL with S26T, F31D, N39S, P61S, E65D, V90I, S97T
Molecule B8 came in with a Kd in assay [2] of 1.48 nM.

B9: h14 (antibody, V domains shown)
VH: B3 VH with K13E, T40A, K43R, S53N, T56G, I69T, F80Y
VL: B3 VL with I21M, F31D, N39S, P61S, E65D, S70G, I88V, V90I, S97T, H98R
With B9, the Kd in assay [2] amounted to 4.39 nM.

B10: h2 (antibody, V domains shown)
VH: B3 VH with D31A, T40A, S53P, G55S, T56S, N59V, I69T
VL: B3 VL with S25P, F31D, N39S, P61S, E65D, G73V, I88V, V90I, S97T
In turn, B10 showed a Kd in assay [2] of 5.24 nM.

B11: h15 (antibody, V domains shown)
VH: B2 VH with K13R, S28T, S32H, L37I, S53G, T61A, S84N
VL: B2 VL with M4L, F21I, T32S, S39A, L42Q, V56I, P61S, G73D
The molecule B11 gave a Kd in assay [2] of 5.78 nM.

B12: h16 (antibody, V domains shown)
VH: B3 VH with A23E, D31A, T40A, W47Y, G55S, T56S, I69T, F80Y
VL: B3 VL with M4L, F31D, N39S, Q42H, P61S, E65D, I88V, Q95E, S97T
Molecule B12 returned a Kd in assay [2] of 2.17 nM.

B13: h11 (antibody, V domains shown)
VH: QVQLVESGGGLVKPGGSLRLSCEASGFTFSAHYMSWIRQAPGKGLEYVSYISGSSSYTNYVDSVKGRFTISRDNAKNSLYLQMNSLRVEDTAVYYCAREGSPGGQGTLVTVSS
VL: B3 VL with M4L, F31D, N39S, Q42H, P61S, E65D, I88V, Q95E, S97T
In assay [2], B13 had a Kd of 0.652 nM.

B14: h13 (antibody, V domains shown)
VH: B2 VH with T61A, S84N
VL: B2 VL with M4L
As to B14, in assay [2], the affinity, expressed as Kd, was 3.66 nM. Against the preceding molecule, the Kd is about 5.6-fold higher.

B15: h17 (antibody, V domains shown)
VH: B3 VH with K13E, T40A, K43R, S53N, T56G, I69T, F80Y
VL: DVVMTQSPLSLPVTLGQPASMSCRSSQSLVDSDGNTYLSWFQQRPGQSPRRLIYKVSDRDSGVPDRFSGGGSGTDFTLKIRRVEAEDVGIYYCMQGTRWPFTFGPGTKVDIKR
Molecule B15 yielded a Kd in assay [2] of 3.18 nM.

B16: h10 (antibody, V domains shown)
VH: B13 VH with G53S
VL: B15 VL with M4L, M21I, Q42H, G70S, R81S, I90V, Q95E, R98H
As to B16, in assay [2], the Kd was found to be 0.0847 nM. This Kd is about 38-fold lower than that of the molecule before.

B17: h20 (antibody, V domains shown)
VH: B2 VH with L37I, K59N, T61V, S84N, A88V
VL: B2 VL with F21I, F31D, T32S, F37Y, L42Q, P61S, Q98H, K112R
In the case of B17, the Kd in assay [2] turned out to be 2 nM.

B18: h25 (antibody, V domains shown)
VH: EVQLVESGGGLVKRGGSLRLSCAASGFTFSSYSMHWVRQAPGKGLEWVSSISSRSTYIYYADSVKGRFTISRDNAKNSLYLQMNSLSAEDTAVYYCARGSGSYYVFDYWGQGTLVTVSS
VL: ELVMTQSPATLSVSPGERATLSCRASQSVSSNLAWYQQKPGQAPRLLIYGASSRATNIPARFSGSGSGTEFTLTISSLQSEDFAVYYCQQYDNWPMYSFGQGTKLEIKR
B18 had a Kd in assay [2] of 0.32 nM.

B19: h1 (antibody, V domains shown)
VH: B18 VH with R14P, H35S, T56N, M83V, S87R
VL: EIVMTQSPATLSVSPGDRATLSCRASQSISSDLAWYQQKPGQAPRLLIYAASTRATGFPARFSGSGSGTEFTLTISSLQPEDFAVYYCQQYNNWPMYAFGQGTKLEIKR
In assay [2], B19 gave a Kd of 0.289 nM.

B20: h27 (antibody, V domains shown)
VH: B18 VH with R14P, H35S, T56N, F68I, S87R
VL: B19 VL with I2L, V13M, S30R, A50D, F58I, T74S, P80S, A98T
With B20, in assay [2], the Kd was found to be 0.16 nM.

B21: murine monoclonal antibody F11 (antibody, V domains shown)
VH: EVQLQQSGPELVKPGASVKISCKTSGYTFTEYTMHWVKQSHGKTLEWIGGIYPNNSGTRYNQKFRGKATLTADKSSSTAYMELRSLTTEDSAVYYCHRYELYWYFDVWGAGTTVTVSS
VL: DIVLTQSPASLAVSLGQRATISCRASKSVSTAGYSYMHWYQQKPGQPPKLLIYLTSNLESGVPARFSGSGSGTDFTLNIHPVEEEDAATYYCQHSREVPYTFGGGTKLEIKR
notes: also called F11 (anti-zzs05)
Regarding B21, in assay [3], the Kd turned out to be 6.9 nM, the koff was found to be 0.000949 s⁻¹ and the kon came to 137000 M⁻¹ s⁻¹.

B22: h29 (antibody, V domains shown)
VH: QVQLVESGGGVVQPGRSLTLSCAASGFTFSRYGMHWVRQAPGKGLEWVTVITYDGRKKYYADSVKGRFTISRDNSQNTLSLQMNSLRAEDTAVYYCAKDLLIGYGMDVWGQGTTVTVSS
VL: DIVMTQSPDSLAVSLGERATIKCKSSQSVFFSSSNKNFLTWYQQKPGQPPKLLIYWASTRESGVPDRFSGSGSGTDFTLTINNLQAEDVTVYYCQQCFSTPYSFGQGTKLEIKR
With B22, binding in assay [4] was characterised by a dissociation constant (Kd) of 1.2 nM. In other words, the single-digit nanomolar range.
